Literature values in PMC7922473.
pKd: −log10 of the molar value.

Molecular target: PrPC (cellular prion protein) (UniProt P04156)

Q: With “CGGTGGGGCAATTTCTCCTACTGT [PrPC aptamer (PrPC-Apt)]” as the sequence, how does the pKd read?
A: 7.80
